According to WO2009138494A2 (dated 2009):

How the values were obtained:
Assay in all cases: ELISA: TLR coated at 2 ug/ml, periplasmic extract of the clone, anti-VHH detection, OD against no-Nanobody control
[1] = target: T1, recombinant murine TLR3, R&D Systems cat no: 3005-TR (murine, UniProt Q99MB1 26-705, limits assumed)
T1 construct: Bought protein, coated on ELISA plates; also called mTLR3

[2] = target: T2, recombinant human TLR4/MD2 (rhTLR4/MD2), R&D Systems cat no: 3146-TM/CF (human, UniProt O00206 24-631; Q9Y6Y9 17-160, limits assumed)
T2 construct: Bought protein, coated on ELISA plates

[3] = target: T3, recombinant human TLR3, R&D Systems cat no: 1487-TR (human, UniProt O15455 27-700, limits assumed)
T3 construct: Bought protein, coated on ELISA plates; also called hTLR3

T1 sequence (Q99MB1 26-705 limits assumed): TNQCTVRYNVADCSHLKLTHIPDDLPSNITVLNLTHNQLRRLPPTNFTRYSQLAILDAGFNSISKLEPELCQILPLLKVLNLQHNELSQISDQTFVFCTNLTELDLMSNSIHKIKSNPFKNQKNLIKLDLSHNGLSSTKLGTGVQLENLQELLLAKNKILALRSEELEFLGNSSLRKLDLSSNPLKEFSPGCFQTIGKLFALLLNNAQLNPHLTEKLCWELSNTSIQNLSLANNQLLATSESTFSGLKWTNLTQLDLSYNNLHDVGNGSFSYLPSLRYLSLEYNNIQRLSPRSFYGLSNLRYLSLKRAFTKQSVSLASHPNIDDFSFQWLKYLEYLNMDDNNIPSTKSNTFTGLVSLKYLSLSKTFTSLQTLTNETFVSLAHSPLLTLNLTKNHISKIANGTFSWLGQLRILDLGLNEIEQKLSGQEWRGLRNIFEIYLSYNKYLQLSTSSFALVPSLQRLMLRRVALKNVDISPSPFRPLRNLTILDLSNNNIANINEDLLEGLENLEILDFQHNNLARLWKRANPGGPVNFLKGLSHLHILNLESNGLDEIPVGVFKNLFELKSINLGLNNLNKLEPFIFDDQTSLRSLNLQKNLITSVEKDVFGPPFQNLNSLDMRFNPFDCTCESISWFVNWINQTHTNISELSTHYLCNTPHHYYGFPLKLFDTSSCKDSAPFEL
T2 sequence (O00206 24-631 limits assumed, chain 1 of 2): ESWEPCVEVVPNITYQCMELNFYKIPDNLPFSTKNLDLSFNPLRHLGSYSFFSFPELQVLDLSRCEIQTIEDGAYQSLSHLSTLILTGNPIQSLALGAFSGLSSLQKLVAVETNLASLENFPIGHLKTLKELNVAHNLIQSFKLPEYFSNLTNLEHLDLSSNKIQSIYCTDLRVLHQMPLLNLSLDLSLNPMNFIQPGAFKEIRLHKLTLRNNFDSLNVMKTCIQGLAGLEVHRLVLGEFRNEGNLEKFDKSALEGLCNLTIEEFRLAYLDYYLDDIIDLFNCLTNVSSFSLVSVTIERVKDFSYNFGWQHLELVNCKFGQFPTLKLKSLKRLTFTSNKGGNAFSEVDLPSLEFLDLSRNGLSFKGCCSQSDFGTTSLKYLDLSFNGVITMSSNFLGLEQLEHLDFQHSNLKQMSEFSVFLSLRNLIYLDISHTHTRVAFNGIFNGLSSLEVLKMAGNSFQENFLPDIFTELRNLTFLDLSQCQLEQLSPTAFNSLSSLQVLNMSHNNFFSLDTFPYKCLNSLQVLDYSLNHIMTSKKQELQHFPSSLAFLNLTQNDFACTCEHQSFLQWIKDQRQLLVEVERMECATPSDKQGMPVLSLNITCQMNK
T2 sequence (Q9Y6Y9 17-160 limits assumed, chain 2 of 2): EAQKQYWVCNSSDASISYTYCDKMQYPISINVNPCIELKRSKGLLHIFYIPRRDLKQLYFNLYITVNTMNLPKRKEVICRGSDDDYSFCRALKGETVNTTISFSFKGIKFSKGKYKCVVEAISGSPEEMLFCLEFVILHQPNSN

binding result [1] | binding result [2] | binding result [3] | Binder
 | binds |  | 133-E12 (VHH, not shown: C-terminal c-myc tag and (His)6 tag coded by the vector) VHH: EVQLVESGGGLVQPGGSLRLSCAASGSIFSISDMGWFRQAPGKEREHVALIRIKDGSIYYADSVKGRFTISRDNAENTVYLQMNSLRPEDTAVYYCGAKTGTSFVYWGQGTQVTVSS
 | binds |  | 107-H7 (VHH, not shown: C-terminal c-myc tag and (His)6 tag coded by the vector) VHH: EVQLVESGGGLVQPGGSLRLSCAASGSIFSINDMGWFRQAPGKEREHVALIRIKDGSIYYADSVKGRFTISRDNAKNTVYLQMNSLRPEDTAVYYCGAKTGTSFVYWGQGTQVTVSS
 | binds |  | 133-F8 (VHH, not shown: C-terminal c-myc tag and (His)6 tag coded by the vector) VHH: EVQLVESGGGLVQPGGSLRLSCAASGSIFSINDMGWFRQAPGKEREHVALIRFKDGSIYYADSVKGRFTISRDNAKSTVYLQMNSLKPEDTAVYYCAAKTGTSFVYWGQGTQVTVSS
binds |  |  | 132-D3 (VHH, not shown: C-terminal c-myc tag and (His)6 tag coded by the vector) VHH: VQLVESGGGLVQAGGSLRLSCVASGTSFSVGAAGWYRQAPGKQRDLVAEIYPSGSTIYADSVKGRFTISRDNAKNTVYLQMNALKPEDTAVYYCNVVRWGVDYWGQGTQVTVSS
 |  | binds | 132-A12 (VHH, not shown: C-terminal c-myc tag and (His)6 tag coded by the vector) VHH: EVQLVESGGGLVQAGGSLRLSCAASGRNFRRNSMGWYRLTSGKQREMVARISNGGTTVYADSVKGRFTISRDNAKNTVYLQMNSLKFEDTAVYYCNAGDYTDSMYWGQGTQVTVSS
 | binds |  | 107-H8 (VHH, not shown: C-terminal c-myc tag and (His)6 tag coded by the vector) VHH: EVQLVESGGGLVQAGGSLRLSCVASRGTLNNNPMAMGWFRRAPGKEREFVASIDWSGRSTYYADSVKGRFTISRDNAKNTVWLQINSLEPEDTSVYFCASRREYYTGISIVESDYPYWGQGTQVTVSS
 |  | binds | 132-G9 (VHH, not shown: C-terminal c-myc tag and (His)6 tag coded by the vector) VHH: EVQLVESGGGLVQTGGSLRLSCAASGNTFNFNVMGWYRQAPGKQRELVTIIDNSGTTNYADSVKGRFTISRDNAKNTVYLQMNSLKPEDTARYFCHARRGGSLYTLGDSNYWGQGTQVTVSS
 |  | binds | 132-B8 (VHH, not shown: C-terminal c-myc tag and (His)6 tag coded by the vector) VHH: AVQLVESGGGLVQAGGSLRLSCAASGNTFSINVMGWYRQAPGKQRDLVTIIDDGGTTNYADSVKGRFTISRDNAKNTVYLQMNSLKPEDTARYFCHARRGGNAYTLGESNYWGQGTQVTVSS
 |  | binds | 132-E10 (VHH, not shown: C-terminal c-myc tag and (His)6 tag coded by the vector) VHH: EVQLVESGGGLVQAGGSLRLSCAASGNTFSINVMGWYRQAPGKQRELVTIIDNGGTTSYADSVKGRFTISRDNAKNTVYLQMNSLKPEDTARYTCHARRGGTLYTLGDSNYWGQGTQVTVSS
 |  | binds | 132-B12 (VHH, not shown: C-terminal c-myc tag and (His)6 tag coded by the vector) VHH: EVQLVESGGGLVQAGGSLRLSCAASGNTFSINVMGWYRQAPGKQRELVTIMDDSGTTNYAGSVKGRFTISRDNAKNTVYLQMSSLKPEDTARYFCHARRGGTAYTLGDSNYWGQGTQVTVSS
 |  | binds | 132-F12 (VHH, not shown: C-terminal c-myc tag and (His)6 tag coded by the vector) VHH: EVQLVESGGGLVQAGGSLRLSCAASGNTFSFNVMGWYRQAPGNQRELVTIIDNSGTTNYADSVKGRFTVSRDNAKNTVYLQMNSLKPEDTARYYCHARRGGGLYILGESNYWGQGTQVTVSS

Continued, binder first:

Binder | binding result [1] | binding result [2] | binding result [3]
132-B3 (VHH, not shown: C-terminal c-myc tag and (His)6 tag coded by the vector) VHH: EVQLVESGGGLVQAGGSLRLSCVASGSPFSIGATGWYRQAPGKQRDLVAEIYPSGDTIYADSVKGRSTISRDNAKNTVYLQMNSLKPEDTAVYFCNVVRWGVDYWGQGTQVTVSS | binds |  | 
132-E5 (VHH, not shown: C-terminal c-myc tag and (His)6 tag coded by the vector) VHH: EVQLVESGGGLVQAGGSLRLSCVVSGSSFSVGAAGWYRQAPGKQRDLVAEIYPSGSTSYADSVKGRFTISRDNAKNIMYLQMNALKLEDTAVYYCNVVRWGVDYWGQGTQVTVSS | binds |  | 
132-D1 (VHH, not shown: C-terminal c-myc tag and (His)6 tag coded by the vector) VHH: EVQLVESGGGLVQAGGSLRLSCVASGTSFSIGAAGWYRQAPGKQRDLLAEIYPSGSTIYADSVKGRFTISRDNAKNTVYLQMNALKPEDTAVYYCNAVRWGVDYWGQGTQVTVSS | binds |  | 
132-H4 (VHH, not shown: C-terminal c-myc tag and (His)6 tag coded by the vector) VHH: EVQLVESGGGLVQAGGSLRLSCVASGTSIMVGAMGWYRQAPGKQRDLVAEIYPSGSTIYEDSVKGRFTISRDNAKNTVYLQMNSLKPEDTAVYYCNVLRWGVDYWGQGTQVTVSS | binds |  | 
132-B1 (VHH, not shown: C-terminal c-myc tag and (His)6 tag coded by the vector) VHH: EVQLVESGGGLVQAGGSLRLSCVASGSPFSIGATGWYRQAPGKQRDLVAEIYPSGDTIYADSVKGRSTISRDNAKNTVYLQMNSMKPEDTAVYFCNVVRWGVDYWGQGTQVTVSS | binds |  | 
132-B5 (VHH, not shown: C-terminal c-myc tag and (His)6 tag coded by the vector) VHH: EVQLVESGGGLVQAGGSLRLSCVASGLVSSYYGMGWFRQAPGKEREFVASVNWSGKDTYYGDSVKGRFAVSRDSGKNTGFLQMNSLKSEDTAVYYCARRRGGGTGTGNPSEYDYWGQGTQVTVSS | binds |  | 
132-G5 (VHH, not shown: C-terminal c-myc tag and (His)6 tag coded by the vector) VHH: EVQLVESGGGLVQPGGSLRLSCAASGSILSIHYMGWFRQAPGKQRELVAGIPTGGTTNYADSVKGRFTMSRDNAKNTVDLQMNTMKPEDTAVYYCNAWISSERESRWLNYWGQGTQVTVSS | binds |  | 
133-H5 (VHH, not shown: C-terminal c-myc tag and (His)6 tag coded by the vector) VHH: EVQLVESGGGLVQAGESLRLSCVVSGISISTKVMGWYRQAPGKQGESVAIIKTDGSTYYPDSVKGRFAISRDNAKNTVYLQMNSLKVEDTGVYYCIITGWGRGQGTQVTVSS |  | binds | 
133-H9 (VHH, not shown: C-terminal c-myc tag and (His)6 tag coded by the vector) VHH: EVQLVESGGGLVQPGGSLRLSCAASGSIFSINDMGWFRQAPGKEREHVALIRIKDGSIYYADSVKGRFTISRDNAKNTVYLQMNSLKPEDTAVYYCAAKTGTSFVYWGQGTQVTVSS |  | binds | 
133-F12 (VHH, not shown: C-terminal c-myc tag and (His)6 tag coded by the vector) VHH: EVQLVESGGGLVQPGGSLRLSCAASGSIFSINDMGWFRQAPGKEREHVALIRFKDGSIYYADSVKGRFTISRDNAKNTVYLQMNSLKPEDTAVYYCAAKTGTSFVCWGQGTQVTVSS |  | binds | 
132-F7 (VHH, not shown: C-terminal c-myc tag and (His)6 tag coded by the vector) VHH: EVQLVESGGGLVQAGGSLRLSCAASGNTFSFNVMGWYRQAPGKQRELVTIIDNGGTTNYADSVKGRFTISRDNAKNTVYLQMNSLKPEDTARYYCHARRGGTLYILGDSNYWGQGTQVTVSS |  |  | binds
